Assay results as given in article PMC5525514 (Journal of biomolecular screening, 2011).

B1: GST-RGS17 (human RGS17 with an N-terminal glutathione-S-transferase and a C-terminal 6xHis tag) (domain or fragment, UniProt Q9UGC6 61-210, looked up)
chain: MESIQVLEECQNPTAEEVLSWSQNFDKMMKAPAGRNLFREFLRTEYSEENLLFWLACEDLKKEQNKKVIEEKARMIYEDYISILSPKEVSLDSRVREVINRNLLDPNPHMYEDAQLQIYTLMHRDSFPRFLNSQIYKSFVESTAGSSSES

Experiments:
[1] = target: biotinylated 6x-His-tagged Gαo (UniProt P59215 1-354, biotin (EZ-Link Biotin-BMCC, maleimide chemistry, labeled at a 10:1 biotin/protein ratio)); experiment: AlphaScreen or HTRF
[2] = target: B1; experiment: AlphaScreen or HTRF
[3] = target: T1, Gαo–RGS17 interaction (Homo sapiens, UniProt Q9UGC6); experiment: AlphaScreen competition binding with free Gαo
T1 sequence (Q9UGC6 61-210 limits assumed): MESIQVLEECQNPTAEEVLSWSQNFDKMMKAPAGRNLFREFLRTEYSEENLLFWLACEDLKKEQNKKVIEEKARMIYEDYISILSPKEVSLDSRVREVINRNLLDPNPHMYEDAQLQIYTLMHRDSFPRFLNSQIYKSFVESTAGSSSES

Molecule: B1
- Kd [1]: 29.2 ± 4.4 nM

B2: 6x-His-tagged Gαo, not biotinylated (free Gαo) (natural protein, UniProt P59215 1-354, looked up)
chain: MGCTLSAEERAALERSKAIEKNLKEDGISAAKDVKLLLLGAGESGKSTIVKQMKIIHEDGFSGEDVKQYKPVVYSNTIQSLAAIVRAMDTLGVEYGDKERKADSKMVCDVVSRMEDTEPFSAELLSAMMRLWGDSGIQECFNRSREYQLNDSAKYYLDSLDRIGAADYQPTEQDILRTRVKTTGIVETHFTFKNLHFRLFDVGGQRSERKKWIHCFEDVTAIIFCVALSGYDQVLHEDETTNRMHESLMLFDSICNNKFFIDTSIILFLNKKDLFGEKIKKSPLTICFPEYPGSNTYEDAAAYIQTQFESKNRSPNKEIYCHMTCATDTNNIQVVFDAVTDIIIANNLRGCGLY
- IC50 [2]: 46 ± 1.1 nM

B3: free Gαo: un-biotinylated Gαo protein used as competitor in the AlphaScreen competition binding assay (protein)
chain: MGCTLSAEERAALERSKAIEKNLKEDGISAAKDVKLLLLGAGESGKSTIVKQMKIIHEDGFSGEDVKQYKPVVYSNTIQSLAAIVRAMDTLGVEYGDKERKADSKMVCDVVSRMEDTEPFSAELLSAMMRLWGDSGIQECFNRSREYQLNDSAKYYLDSLDRIGAADYQPTEQDILRTRVKTTGIVETHFTFKNLHFRLFDVGGQRSERKKWIHCFEDVTAIIFCVALSGYDQVLHEDETTNRMHESLMLFDSICNNKFFIDTSIILFLNKKDLFGEKIKKSPLTICFPEYPGSNTYEDAAAYIQTQFESKNRSPNKEIYCHMTCATDTNNIQVVFDAVTDIIIANNLRGCGLY
modifications: left off: His6, end not stated, state not stated
- Hill slope [3]: −1.3
